Measured values reported in doi:10.1101/2022.01.09.475535.

Target: SF3B1 N-terminal region, residues 147-462 (SFB1^147-462) (human) (UniProt O75533)
Assay: ITC

SF3B1 N-terminal region, residues 147-462 (SFB1^147-462) (human), sequence (O75533 147-462): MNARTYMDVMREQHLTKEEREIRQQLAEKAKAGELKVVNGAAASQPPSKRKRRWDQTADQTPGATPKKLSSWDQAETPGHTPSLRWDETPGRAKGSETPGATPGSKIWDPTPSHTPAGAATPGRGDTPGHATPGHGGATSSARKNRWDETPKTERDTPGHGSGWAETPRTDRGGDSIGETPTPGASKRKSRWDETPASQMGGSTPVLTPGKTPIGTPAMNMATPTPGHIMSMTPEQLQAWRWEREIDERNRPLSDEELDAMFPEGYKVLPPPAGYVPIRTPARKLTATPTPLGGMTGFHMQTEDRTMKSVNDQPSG

## U2AF2^12UL (nearly full-length U2AF2, residues 141-471) (domain or fragment)
  stoichiometry N (U2AF2^12UL per SF3B1 ULM region): 2
